Source: patent publication US20250388664A1 (BIOARCTIC, published 2025)
Where two headings read alike, the source gives them in different places.

T1: AβpE11-28 monomer (UniProt P05067 682-699, pyroglutamate at position 11 (N-terminal residue))
T1 construct: range 11-28 (Aβ numbering)
T1 peptide (looked up): EVHHQKLVFFAEDVGSNK


How the values were obtained:
[1] = biological target: T2, AβpE3-42 protofibrils (UniProt P05067 674-713, pyroglutamate at position 3 (N-terminal residue)); test: SPR, protofibrils immobilised, antibody injected, 1:1 fit, apparent; Table 10; apparent KD on AβpE3-42 protofibrils
T2 construct: range 3-42 (Aβ numbering); Soluble aggregates made from AβpE3-42 peptide, purified in the void peak of SEC; also called AβpE3-42 PF
T2 sequence (P05067 674-713): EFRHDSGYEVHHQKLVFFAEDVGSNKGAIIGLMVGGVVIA
Experimental: (§1) Single cycle kinetics was also used to measure binding of the antibodies to AβpE3-42 protofibrils. […] Regeneration of the surface between cycles was done by injecting 30 μl 10 mM glycine-HCl pH 1.7. The binding data was fitted to a 1:1 interaction model.
(§2) In all SPR experiments, 1×HBS-EP+ (Cytiva, cat. no. BR100669) was used to dilute antibodies and target antigens. Experiments were performed at 25° C.

[2] = biological target: T3, AβpE3-40 monomer (UniProt P05067 674-711, pyroglutamate at position 3 (N-terminal residue)); test: inhibition ELISA, antigen titrated in solution, AβpE3-40 coat
T3 construct: range 3-40 (Aβ numbering); Synthetic peptide (Bachem/Anaspec), verified monomeric by SEC; also called monomeric AβpE3-40
T3 sequence (P05067 674-711): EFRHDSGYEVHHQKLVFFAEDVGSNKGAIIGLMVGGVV

[3] = biological target: T4, Aβ1-42 protofibrils (UniProt P05067 672-713); test: as above
T4 construct: range 1-42 (Aβ numbering); Soluble aggregates made from Aβ1-42 monomer
T4 sequence (P05067 672-713): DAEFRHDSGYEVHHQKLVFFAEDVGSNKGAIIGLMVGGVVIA

[4] = biological target: T5, Aβ1-40 monomer (UniProt P05067 672-711); test: as above
T5 construct: range 1-40 (Aβ numbering)
T5 sequence (P05067 672-711): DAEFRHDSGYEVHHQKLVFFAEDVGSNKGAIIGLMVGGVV

[5] = biological target: T2, AβpE3-42 protofibrils; test: as above
[6] = biological target: T3, AβpE3-40 monomer; test: SPR, antibody immobilised, monomer injected, 1:1 fit
Experimental: (§3) Single cycle kinetics with the antibodies immobilized on a CM5 chip was used to measure the binding of the antibodies to the AβpE3-40 monomer. For the measurements, 5 μg/ml of analyte antibody was immobilized on the chip. […] Regeneration of the surface between cycles was done by injecting 30 μl 3 M MgCl₂. The binding data was fitted to a 1:1 interaction model.
as §2
(§4) Affinity evaluation and KD determination by surface plasmon resonance: Binding interactions between antigens and antibodies were evaluated by SPR using a Biacore 8K instrument (Cytiva) according to standard procedures.

[7] = biological target: T2, AβpE3-42 protofibrils; test: SPR, protofibrils immobilised, antibody injected, 1:1 fit, apparent
Experimental: as §1, §2, §4

[8] = biological target: T6, Aβ3-28 monomer (UniProt P05067 674-699); test: inhibition ELISA, antigen titrated in solution, AβpE3-40 coat
T6 construct: range 3-28 (Aβ numbering)
T6 sequence (P05067 674-699): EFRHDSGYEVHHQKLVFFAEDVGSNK
Experimental: (§5) The humanized antibodies were incubated at a fixed concentration (0.5 μg/ml) with titrating concentrations of the different Aβ antigens. After incubation for 45 min at 900 rpm to reach equilibrium, the antibody-Aβ samples were added to a blocked and washed ELISA plate with an AβpE3-40 coat (0.5 μM). The samples were incubated on the plate for 25 min without shaking followed by washing, incubation with detection antibody, another washing step and finally incubation with alkaline phosphatase substrate.

[9] = biological target: T7, AβpE3-28 monomer (UniProt P05067 674-699, pyroglutamate at position 3 (N-terminal residue)); test: as above
T7 construct: range 3-28 (Aβ numbering)
Experimental: as §5

[10] = biological target: T3, AβpE3-40 monomer; test: SPR, antibody immobilised, monomer injected, 1:1 fit; remark: listed apart in the source
Experimental: as §3, §2

[11] = biological target: T1, AβpE11-28 monomer; test: inhibition ELISA, antigen titrated in solution, AβpE3-40 coat
Experimental: as §5

[12] = biological target: T8, Aβ2-28 monomer (UniProt P05067 673-699); test: as above
T8 construct: range 2-28 (Aβ numbering)
T8 sequence (P05067 673-699): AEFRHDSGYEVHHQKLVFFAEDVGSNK
Experimental: as §5

[13] = biological target: T6, Aβ3-28 monomer; test: as above; remark: listed apart in the source
Experimental: as §5

[14] = biological target: T9, Aβ5-28 monomer (UniProt P05067 676-699); test: as above
T9 construct: range 5-28 (Aβ numbering)
T9 sequence (P05067 676-699): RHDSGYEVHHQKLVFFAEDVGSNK
Experimental: as §5

[15] = biological target: T10, Aβ1-28 monomer (UniProt P05067 672-699); test: as above
T10 construct: range 1-28 (Aβ numbering)
T10 sequence (P05067 672-699): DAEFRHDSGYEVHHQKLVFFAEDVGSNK
Experimental: as §5

[16] = biological target: T11, Aβ4-28 monomer (UniProt P05067 675-699); test: as above
T11 construct: range 4-28 (Aβ numbering)
T11 sequence (P05067 675-699): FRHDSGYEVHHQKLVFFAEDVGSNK
Experimental: as §5

[17] = biological target: T7, AβpE3-28 monomer; test: as above; remark: listed apart in the source
Experimental: as §5

[18] = biological target: T2, AβpE3-42 protofibrils; test: SPR, protofibrils immobilised, antibody injected, 1:1 fit, apparent; remark: listed apart in the source
Experimental: as §1, §2

[19] = biological target: T3, AβpE3-40 monomer; test: inhibition ELISA, antigen titrated in solution, AβpE3-40 coat; remark: listed apart in the source
Experimental: as §5, with “concentration (0.1” for “concentration (0.5”

[20] = biological target: T4, Aβ1-42 protofibrils; test: as above; remark: listed apart in the source
Experimental: as §5, with “concentration (0.1” for “concentration (0.5”

[21] = biological target: T5, Aβ1-40 monomer; test: as above; remark: listed apart in the source
Experimental: as §5, with “concentration (0.1” for “concentration (0.5”

[22] = biological target: T2, AβpE3-42 protofibrils; test: as above; remark: listed apart in the source
Experimental: as §5, with “concentration (0.1” for “concentration (0.5”

[23] = biological target: T2, AβpE3-42 protofibrils; test: SPR, protofibrils immobilised, antibody injected, 1:1 fit, apparent; apparent KD on AβpE3-42 protofibrils
Experimental: as §1, §2

[24] = biological target: T2, AβpE3-42 protofibrils; test: SPR, protofibrils immobilised, antibody injected, 1:1 fit, apparent; binding to AβpE3-42 protofibrils; KD in pM
Experimental: as §1, §2, §4

[25] = biological target: T10, Aβ1-28 monomer; test: inhibition ELISA, antigen titrated in solution, AβpE3-40 coat; remark: listed apart in the source
Experimental: as §5

IC50 [2]	IC50 [3]	IC50 [4]	IC50 [5]	Kd [6]	koff [6]	kon [6]	koff [7]	kon [7]	IC50 [8]	IC50 [9]	Kd [10]	koff [10]	kon [10]	IC50 [11]	IC50 [12]	IC50 [13]	IC50 [14]	IC50 [15]	IC50 [16]	Binder	other results
2.35 nM	> 132 nM	> 500 nM	3 nM	2.54 nM	0.000125 s⁻¹	50500 M⁻¹ s⁻¹	1.79e-05 s⁻¹	107000 M⁻¹ s⁻¹	2350 nM	3.6 nM	2.54 nM	0.000125 s⁻¹	50500 M⁻¹ s⁻¹	> 12500 nM	> 12500 nM	1870 nM	> 12500 nM	> 12500 nM	> 12500 nM	H2L7 (antibody, human IgG1, kappa, V domains shown, Humanized IgG1/kappa, expressed in CHO cells; also called humanized Pyr12.2 variant H2L7; VH2/VL7) VH: EVQLVQSGAEVKKPGASVRLSCKASGYSFTGFTMNWVRQALGQGLEWMGLINPYNGVTTYNQKFKGRLTMTRDMSTRTVYMDLSSLRYEDTAVYYCTREGNWEGVYWGQGTLVTVSS VL: EIVLTQSPLSLSVTLGQSASISCRSSQSLLDSNGKTYLHWFILRPGQSPRRLIYLVSILDSGVPDRFSGSGSGTDFTLKISRVEAEDVGVYYCVQGTHFPFTFGSGTKLEIKR	Kd [1]: 0.173 nM; IC50 [17]: 5.5 nM; koff [18]: 1.79e-05 s⁻¹; kon [18]: 107000 M⁻¹ s⁻¹; IC50 [19]: 2.6 nM; IC50 [20]: > 500 nM; IC50 [21]: > 12500 nM; IC50 [22]: 2.5 nM
–	–	–	–	–	–	–	–	–	–	–	2.7 nM	0.000139 s⁻¹	53700 M⁻¹ s⁻¹	> 12500 nM	> 12500 nM	1790 nM	> 12500 nM	> 12500 nM	> 12500 nM	H9L8 (antibody, human IgG1, kappa, V domains shown, Humanized IgG1/kappa, expressed in CHO cells; also called humanized Pyr12.2 variant H9L8; VH9/VL8) VH: QVQLVQSGPEVKKPGSSVKVSCKASGYSFTGFTMNWVRQTPGKGLEWIGLINPYNGVTTYNQKFKGRVTITADESTRTAYMELLSLTYEDTAVYYCTREGNWEGVYWGQGTPVTVSA VL: EVVLTQSPLSISVTLGQSASISCRSSQSLLDSNGKTYLHWFILRPGQSPRRLIYLVSILDSGIPDRFSGSGSGTDFTLKISRVEAEDVGVYYCVQGTHFPFTFGGGTKLEIKR	Kd [23]: 0.464 nM; IC50 [17]: 3.5 nM; koff [18]: 2.05e-05 s⁻¹; kon [18]: 44300 M⁻¹ s⁻¹; IC50 [19]: 2.1 nM; IC50 [20]: > 500 nM; IC50 [21]: > 12500 nM; IC50 [22]: 4.9 nM
1.69 nM	> 132 nM	> 500 nM	3.58 nM	4.14 nM	0.000233 s⁻¹	59000 M⁻¹ s⁻¹	2.92e-05 s⁻¹	61200 M⁻¹ s⁻¹	2820 nM	3 nM	–	–	–	–	–	–	–	–	–	H2L7-K12V/R71A (antibody, human IgG1, kappa, VH variant of H2L7; VL and constant domains identical to H2L7) heavy: not shown light: EIVLTQSPLSLSVTLGQSASISCRSSQSLLDSNGKTYLHWFILRPGQSPRRLIYLVSILDSGVPDRFSGSGSGTDFTLKISRVEAEDVGVYYCVQGTHFPFTFGSGTKLEIKRTVAAPSVFIFPPSDEQLKSGTASVVCLLNNFYPREAKVQWKVDNALQSGNSQESVTEQDSKDSTYSLSSTLTLSKADYEKHKVYACEVTHQGLSSPVTKSFNRGEC	Kd [24]: 0.477 nM; IC50 [25]: 10200 nM
